# Data published in paper PMC9779650 (2022).
# B1: P4A2 monoclonal antibody (antibody, V domains shown)
# VH: QVQLQQSGAELVKPGASVKLSCKASGFTFTRYSIYWMKQRPGQGLEWIGEINPSTGDTNFNEKFKSKATLTVDKSSTTAYMQLSSLTSEDSAVYYCTRSTGYWGQGTLVTVSA
# VL: DIVLTQSPASLAVSLGQRATISCRASESVEYHGTILMQWFQQKPGQPPRLLIYAASNVDSGVPARFSGSGSGTDLSLNIHPVEEDDIAMYFCQQSRKVPYTFGGGTKLEIK
# Assays:
# [1] = molecular target: T1, SARS-CoV-2 spike RBD-His (wildtype, WA1/2020) (SARS-CoV-2, UniProt P0DTC2 319-541); test: BLI
# [2] = molecular target: T1, SARS-CoV-2 spike RBD-His (wildtype, …); test: BLI; remark: listed apart in the source
binder,measurement,setting,value
B1,koff,[1],< 1e-07 s⁻¹
same,Kd,[2],< 1 pM
